Data from the DeepSol protein solubility set.

Assay: soluble on expression in E. coli; label from the status in PepcDB or PDB records

Row | Sequence | soluble on expression in E. coli
1 | MSLDKNRTMLLIVDINKGFAKEGALYSDRIEKLISPISNLANYALNSGIRVKAFTDYHTEDSIELKAYPKHCMKDTDEWELVDELNLEGIEVIKKNSTNGFLEENFILNKEEIDNVIIVGDCTDICIYQLAISLRAEFNRVNKDGEIYVPKKLVDTFDMPMHKANFMNYVFLNSMLDNGVKVIEDIILDEGHHHHHH | not soluble
2 | MAHHHHHHMSAPKEGNRGESKEKFWLYAFRDHLANLRAFSNCIETADVNGVGDYQLLVADGSKRIKVYAGTSLQRELPLFGVPSAITSFFMDDADAFGKPVVAVATGPYIFMYRSNKPLYRFMVPPVPLNPQESAIWQDLATEALTVEEAVKQLESLLDSGVETSSRTLELLLETPEERGEFVSRLRSVPLIQMDVVCCLTSIPLNSLDEGGRSVLVIGTEAGFLYVLKHNAAEVALKVVLPRTPVFLIAAGCFEVDYRMVVACRDGRVYSIKQGNLQNAVIQPDAQPCAIARYNNLIAVATTANTLAYYNLKGKKQQSVFLPCSISGLSTINDTVTGEARGLVVALSNGEIRVYVGTQLHHVSLAYGTVTAMKFGRYGRSDGALVLVLQNGSLVVELLHRGVNLSCSKTVETGPPPQQDIPIPIPHLSSVFATQSSRERKHGVEMYQLFQYDLSQLRLTTAKAYLDMIANGSVPSELGNVTQENEGVAEPSLRLNAVVQGLGPVFKVKVQLQNVGEAPLHAVRVVFCLSEDNVYCMPQQIFLIPTLLPSVPLSCAAFVTTSEGEAKGNAILVVATGPKSRTPLARTLVDLPEVEAMAEV | not soluble
3 | KEQILSSEQLARKMMLELGDKKQEHLVAIYMDTQNRIIEQRTIFIGTVRRSVAEPREILHYACKNMATSLIIIHNHPSGSPKPSESDLSFTKKIKRSCDHLGIVCLDHIIVGKNKYYSFREEADI | not soluble
4 | MNTELQPKLEKSAVNFQAKPRKQKIRKDPNAPFIREKLELPDGHNKLLLHSCCAPCSGEVMEAILASGIEFTIYFYNPNIHPLKEYLIRKEENIRFAKKFGIPFIDADYDRQNWFDRAKGMEWEPERGIRCTMCFDMRFEKAAEYAHKHGFPVFTSCLGISRWKDMNQINGCGHRAAEKYDDVIYWDYNWRKEGGSQRMIEISKRERFYQQEYCGCVYSLRDSNKWREETGRQKIEIGKLYYSAD | not soluble
5 | MRHTCPKVTLRQRAIRNGRISLYLDYYPAVRNPETMQMSRREYLGIYIYAHPKNEMEREFNMDMLNKAEAIRCIRVQSLINEEFGFLDRTKMKTDFLAYFLKMCRKKDQKWRIVYQHFYNYVQGHCTFGDITIELCQGFREYLLNAKQLKRKGKVSTNSASGYYSTFRGLLKIAYRDKWLRENINDFLDKIEAKEVKKEYLTLDEVKILAQTPCEHDVLKRASLFSCLTGLRISDILNLRWEDFTLAPDQGYCIRIRTQKTSTEATLPIS | not soluble
6 | GLDTIPTTYVDAGSVFGKTGDAEKVLNGGWNYLMETFNSYANPGYGAMLRANDAMGSDVVLNSKYGFRTHNEFSAIYGKGGTNTLSWLLAYRVINDCNGVLDNIDAAEGTQADRNRIKGQALALRGFLYLHLASCYSFAIDKDPDAVCAPIYTQSTDETIAAEGKPASSVSEVYAQSINDLEEALELIPETYVRDAKHKIDNEVVLGILSRACLYARQWEKAKTYSDKLLAKDNYLMTESEYKAGFNSVDNKEWIWGHAQTNDQSNASYQFHYLDTTTKGSYYYSFNVDPYFRDLFEDGDYRKEMLFWATDPGADVESAAYVWMRNSKFRFRDIENQLGDIVLMRVAEIYLINAEAKAHLNDPDAINKLNDLKTARGAKTIHTNLSQQDLLETIWLERRKELWGEGFSLIDIIRNQQTVVRNAYPEGPIDYIYTDENGQTHTLKKKTQGHRFFNFPDKSAFCPNSKYYLYRITDSEELANKNLYKDHPKLSIYTK | soluble
7 | MMKLNLFINANETESYIDIHAPKMNDHVQSIINAVNDLDKSHTLVGYIDKEIHIINVSDVITFQVINKNVTAITSNQKFKLKLRLYELEKQLPQHFIRISKSEIVNKYYIEKLLLEPNGLIRMYLKDAHYTYSSRRYLKSIKERLSI | not soluble
8 | MLYPNERKSSVHAIPYQDQLKQVQSAVDEFQKANGGLLPIQTKDMSTPLYQKYPIDFNRLAPRYIAEPPSTAFESGGDYQYVLVDVENDPTVKLIDLKMAEKIRDVKLRIQMYRQEHQYPPYKDVLSRDLFTLDEKKLGDGSSLTVTSPISGNSLPLMIDGDGEIYADYRTELASCLKKSKKTFKPGTEIQDMIWHETPFVPAFSVKYTVNDKQEPVFLENDMKKELEHHHHHH | soluble
9 | MGHHHHHHSHMTLQALSEANRRLWMEAMDGKEPIYHSPITKQQEMELNEVGFKFVRKCINIIETKGIKTEGLYRTVGSNIQVQKLLNAFFDPKCPGDVDFHNSDWDIKTITSSLKFYLRNLSEPVMTYRLHKELVSAAKSDNLDYRLGAIHSLVYKLPEKNREMLELLIRHLVNVCEHSKENLMTPSNMGVIFGPTLMRAQEDTVAAMMNIKFQNIVVEILIEHFGKIYLGPPEESAAPPVPPPRVTARRHKP | not soluble
10 | MPRIITRPFLFSPLTLCISAVASAAKTAVKRKKLFTAVLALSWAFSVTAAERIVVAGGSLTELIYAMGAGERVVGVDETTSYPPETAKLPHIGYWKQLSSEGILSLRPDSVITWQDAGPQIVLDQLRAQKVNVVTLPRVPATLQQMYANIRQLAKTLQVPEQGEALVTQISQRLERVQQNVATKKAPVKAMFILSAGGSAPQVAGKGSVADAILSLAGAENVATHQQYKSYSAESLIAANPEVIVVTSQMVDGDINRLRSIAGITHTAAWKNQRIITVDQNLILGMGPRIADVVESLHQQLWPQ | not soluble
11 | MGSDKIHHHHHHMLPPLDSDLMRGFLAVVETGSLTRAGHRLGRTQSAISMQIRKLEDSLGQSVFVREPRGVRLTERGKQLLPYAQRVVGLLDEAAIALREKPLSGPVRVGVPDEYIQGVLPAVLSAFSQRHPETQVTLRCDFSAPQLEALNSDKIDLAVIYEGYSTDEVEVLAVDPTVWVTSISHAQHLHRPLPISIYFSSDWCRDFALHSLEQIGIPYFAAFECDTSGGMRSAVSNGIAVAPLARSSIPPGCRELTAEDGFMGVDNARVVLRRNPAGSSTAIEAMVATLREAFWPLTKNGGL | not soluble
12 | KKAITCGEKEKQDLIKSLAMLKDGFRTDRGSHSDLWSSSSSLESSSFPLPKQYLDVSSQTDISGSFGINSNNQLAEKVRLRLRYEEAKRRIANLKIQLAKLDSEAWPGVLDSERDRLILINEKEELLKEMRFISPRKWTQGEVEQLEMARKRLEKDLQAARDTQSKALTERLKLNSKRNQLVRELEEATRQVATLHSQLKSLSSSMQSLSSGSSPGSLTSSRGSLVASSLDSSTSASFTDLYYDPFEQLDSELQSKVEFLLLEGATGFRPSGCITTIHEDEVAKTQKAEGGGRLQALRSLSGTPKSMTSLSPRSSLSSPSPPCSPLMADPLLAGDAFLNSLEFEDPELSATLCELSLGNSAQERYRLEEPGTEGKQLGQAVNTAQGCGLKVACVSAAVSDESVAGDSGVYEASVQRLGASEAAAFDSDESEAVGATRIQIALKYDEKNKQFAILIIQLSNLSALLQQQDQKVNIRVAVLPCSESTTCLFRTRPLDASDTLVFNEVFWVSMSYPALHQKTLRVDVCTTDRSHLEECLGGAQISLAEVCRSGERSTRWYNLLSYKYLKKQSRELKPVGVMAPASGPASTDAVSALLEQTAVELEKRQEGRSSTQTLEDSWRYEETSENEAVAEEEEEEVEEEEGEEDVFTEKASPDMDGYPALKVDKETNTETPAPSPTVVRPKDRRVGTPSQGPFLRGSTIIRSKTFSPGPQSQYVCRLNRSDSDSSTLSKKPPFVRNSLERRSVRMKRPSSVKSLRSERLIRTSLDLELDLQATRTWHSQLTQEISVLKELKEQLEQAKSHGEKELPQWLREDERFRLLLRMLEKRMDRAEHKGELQTDKMMRAAAKDVHRLRGQSCKEPPEVQSFREKMAFFTRPRMNIPALSADDV | soluble
13 | MDDREDLVYQAKLAEQAERYDEMVESMKKVAGMDVELTVEERNLLSVAYKNVIGARRASWRIISSIEQKEENKGGEDKLKMIREYRQMVETELKLICCDILDVLDKHLIPAANTGESKVFYYKMKGDYHRYLAEFATGNDRKEAAENSLVAYKAASDIAMTELPPTHPIRLGLALNFSVFYYEILNSPDRACRLAKAAFDDAIAELDTLSEESYKDSTLIMQLLRDNLTLWTSDMQGDGEEQNKEALQDVEDENQ | soluble
